Test results from patent US11339383B2, “G proteins” (HEPTARES THERAPEUTICS LIMITED, priority 2016, dated 2022).

Columns and labels:
[1] = molecular target: T1, β1AR-84 (Meleagris gallopavo, UniProt P07700, C116L/C358A/D322K/DEL244-271/F327A/F338M/M44C/M90V/V103C); assay: Saturation binding assay, ^3H-DHA binding to β1AR-84; parameters: species or system turkey; details: insect cell membranes, 20° C.
T1 construct: His6 (C); made in house; host or cells: Trichoplusia ni (High Five) insect cells, BaculoGold baculovirus
T1 sequence (P07700 other isoform, or with tags, fused parts or gaps M44C/M90V/V103C/C116L/DEL244-271/D322K/F327A/F338M/C358A): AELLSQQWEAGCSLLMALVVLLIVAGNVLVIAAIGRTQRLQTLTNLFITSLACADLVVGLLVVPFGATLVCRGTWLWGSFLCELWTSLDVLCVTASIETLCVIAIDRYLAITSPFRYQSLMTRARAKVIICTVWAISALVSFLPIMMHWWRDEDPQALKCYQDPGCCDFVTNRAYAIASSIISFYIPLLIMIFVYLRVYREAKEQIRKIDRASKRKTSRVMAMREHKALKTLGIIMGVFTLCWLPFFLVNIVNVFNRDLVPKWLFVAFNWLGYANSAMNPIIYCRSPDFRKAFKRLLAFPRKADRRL
Method: FIG. 2. Saturation binding data for β1AR constructs. […] Data represent mean±SEM of three independent experiments. Curves shown are from a representative experiment performed in duplicate.
Insect cells expressing β1AR were resuspended in 1 ml of assay buffer (20 mM HEPES, pH 7.5, 100 mM NaCl), supplemented with Complete EDTA-free protease inhibitors (Roche). Cells were broken by 10 passages through a bent 26 G needle. Cell debris was removed by centrifugation (3000 g for 5 mins at 4° C.). The supernatant was diluted and 2×0.96 ml aliquots taken for each sample. Alprenolol (120 μl) was added to the negative sample (1 mM final concentration) and assay buffer (120 μl) was added to the positive sample. Samples were aliquoted (12×108 μl) into a PCR plate. [^3H]-dihydroalprenolol (12 μl) was added to each well (to give final concentrations in the range: 2.5 nM-2.56 μM). Samples were mixed and incubated at 20° C. for 2 h. Samples (2×50 μl duplicates) were vacuum filtered through 96-well glass fibre filter plates (Merck Millipore), pre-soaked with PEI (0.1%). Each well was washed with assay buffer (3×200 μl). Filters were dried, punched into scintillation vials and 4 ml Ultima Gold scintillant (Perkin Elmer) was added. Radioactivity was quantified by scintillation counting (1 min per sample) using a Tri-Carb counter (Perkin Elmer). Data for negative samples were subtracted from positive samples. […]

[2] = molecular target: T1, β1AR-84; type: binding, turkey; details: membranes
[3] = molecular target: A2AR (Homo sapiens, UniProt P29274, N154A); assay: Thermostability assay of ^3H-NECA-bound A2AR
Chain of A2AR (P29274 1-317 N154A): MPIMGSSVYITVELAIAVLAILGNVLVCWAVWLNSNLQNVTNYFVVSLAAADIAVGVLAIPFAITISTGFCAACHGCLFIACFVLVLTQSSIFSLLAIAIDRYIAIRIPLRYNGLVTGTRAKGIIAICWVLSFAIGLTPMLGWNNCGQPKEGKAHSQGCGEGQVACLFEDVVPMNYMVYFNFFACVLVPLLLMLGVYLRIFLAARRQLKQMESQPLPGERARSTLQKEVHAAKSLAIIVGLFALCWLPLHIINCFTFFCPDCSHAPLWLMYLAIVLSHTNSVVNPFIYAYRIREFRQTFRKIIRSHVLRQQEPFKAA
Method: The samples were incubated at room temperature for 1 h, then chilled on ice for 30 min. DDM, DM or OG were added to a final concentration of 0.1%, 0.13% or 0.8%, respectively, and samples were incubated on ice for 1 h. Cell debris was removed by centrifugation for 5 min at 20,000×g and the supernatant was aliquoted into PCR strips. Samples were heated to the desired temperature for exactly 30 min, then quenched on ice for 30 min. Samples (50 μl) were loaded onto gel filtration resin packed into a 96-well filter plate (Millipore), which was centrifuged to separate receptor-bound from free radioligand. […] Data were analyzed by nonlinear regression using GraphPad Prism software. Apparent Tm values were derived from sigmoidal dose-response analysis. Results represent the mean±SEM of two independent experiments, performed in duplicate.
Samples were heated to the desired temperature for exactly 30 min, then quenched on ice for 30 min. Samples (50 μl) were loaded onto gel-filtration resin (Toyopearl HW-40F) packed into a 96-well filter plate (Millipore), which was centrifuged to separate receptor-bound from free radioligand [28]. […] Data were analysed by nonlinear regression using GraphPad Prism software. Apparent Tm values were derived from sigmoidal dose-response analysis performed by non-liner regression. Results represent the mean±SEM of two independent experiments, performed in duplicate.

[4] = molecular target: T2, NTSR1 (Rattus norvegicus, UniProt P20789); assay: Thermostability assay of ^3H-NTS-bound NTSR1; type: biochemical; details: DDM-solubilized
T2 construct: the wild-type rat NTSR1 (residues 43-396) and a C-terminal His10 tag; hemagglutinin signal peptide (N); Flag (N); His10 (C); made in house; host or cells: Trichoplusia ni insect cells, baculovirus (modified pFastBac1)
T2 sequence (P20789 43-396): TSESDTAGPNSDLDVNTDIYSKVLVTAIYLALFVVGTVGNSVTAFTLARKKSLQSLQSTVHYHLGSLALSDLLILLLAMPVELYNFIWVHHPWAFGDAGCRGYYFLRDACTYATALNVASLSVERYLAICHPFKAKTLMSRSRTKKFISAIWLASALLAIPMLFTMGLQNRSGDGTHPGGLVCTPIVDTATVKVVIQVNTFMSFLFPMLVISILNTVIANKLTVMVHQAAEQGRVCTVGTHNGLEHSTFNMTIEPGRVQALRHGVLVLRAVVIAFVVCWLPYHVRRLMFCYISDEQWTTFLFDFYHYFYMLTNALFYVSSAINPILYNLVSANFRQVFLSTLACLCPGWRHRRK
Method: The samples were placed on a rotating mixer at 4° C. for 1 hour. Cell debris and non-solubilized material were removed by ultracentrifugation (152,800×g, 4° C., 30 min), and the supernatant containing detergent-solubilized NTSR1 was used to test for thermal stability in the presence of NTS and mini-G proteins. For thermal denaturation curves, the supernatants were diluted 6.67-fold into assay buffer (50 mM TrisHCl pH 7.4, 100 mM NaCl, 1 mM MgCl2) containing 22.5 μM mini-G protein and 10 nM ^3H-NTS and incubated for 1 hour on ice. After addition of apyrase (0.25 units/ml, NEB), the sample was placed on ice for an additional 30 min. Samples (120 μl aliquots) were exposed to different temperatures between 0° C. and 60° C. for 30 min and placed on ice. […] Control reactions on ice were recorded at the start and at the end of each denaturation experiment. The percentage of activity remaining after heat exposure was determined with respect to the unheated control. Data were analyzed by nonlinear regression using a Boltzmann sigmoidal equation in the Prism software (GraphPad).

[5] = Stability of mini-G proteins in detergent by native DSF; type: physicochemical; details: 2 mg/ml, onset of scattering
Method: (§1) For constructs see FIGS. 29 and 35-37. Expression, purification and stability measurements by differential scanning fluorimetry (DSF) of the mini-G proteins as well as the non-lipidated Gβ1γ2 dimer, were performed following the protocols described in Example 1. The stability of mini-G proteins was also determined in detergent using native DSF (NanoTemper Prometheus). Mini-G proteins (2 mg/ml) in 50 mM HEPES pH 7.5 (KOH), 20 mM MgCl2, 50 mM NaCl, 1 μM GDP were mixed with either no detergent (control), 0.1% LMNG or 0.1% DDM. Samples were incubated on ice (minimum 30 min) prior to heating on the Prometheus (20% excitation, 15° C.-85° C., rate of 2.0° C./min) and the onset of scattering determined.

[6] = Thermostability of GDP-bound mini G proteins by differential scanning fluorimetry (DSF); type: physicochemical; details: mini-G protein alone, GDP-bound
Method: SYPRO-orange (15 μl) was added from a 20× stock solution to give a final concentration of 2×. Samples were mixed and 2×50 μl aliquots (duplicates) were transferred to 0.2 ml PCR tubes (Qiagen). Thermostability measurements were performed using a Rotor-Gene Q (Qiagen). Samples were equilibrated for 90 s at 25° C. before ramping from 25 to 99° C. at 4 s/° C. The melting temperature (Tm), corresponding to the inflection point of the curve, was derived from analysis using the Rotor-Gene Q software. Tm values were calculated as the mean±SEM from three independent experiments.
as §1

Question: For CCCc1ccccc1OCC(O)CNC(C)C (stereo not shown) [^3H-DHA, ^3H-dihydroalprenolol], which Kd [1] is on record?
Answer: 0.02 ± 0.003 µM

Question: Which “shift of isoprenaline Ki of β1AR-84 in response to binding partner, 20° C.” value ([2]; relative to uncoupled […]) does the source give for “Gs: non-lipidated Gs (Gαsβ1γ2) heterotrimer [reference compound]” here?
Answer: 9.6 fold

B1: Mini-Gs/q58: mini-Gs with final 19 residues of α5 helix changed to those in Gαq (13 mutations) (protein)
chain: MGHHHHHHENLYFQGIEKQLQKDKQVYRATHRLLLLGADNSGKSTIVKQMRILHGGSGGSGGTSGIFETKFQVDKVNFHMFDVGGQRDERRKWIQCFNDVTAIIFVVDSSDYNRLQEALNDFKSIWNNRWLRTISVILFLNKQDLLAEKVLAGKSKIEDYFPEFARYTTPEDATPEPGEDPRVTRAKYFIRDEFLRISTASGDGRHYCYPHFTCAVDTENARRIFAAVKDTILQLNLKEYNLV
modifications: Mini-Gs/q58
Question: For B1, which “coupling of mini-Gs/q chimera to A2AR (thermostability assay and SEC)” value (“coupling of mini-Gs/q chimera to A2AR” for short) [3] is on record?
Answer: did not couple

Question: What about the “shift in the thermostability of NTSR1” value [4] of the same molecule?
Answer: no significant shift

B2: Mini-G128: mini-G protein of G12, construct 8; SEQ ID NO:114 (protein)
chain: MGHHHHHHENLYFQGIDALLARERRAVRRLVKILLLGADNSGKSTFLKQMRIIHGGSGGSGGTKGIVEHDFVIKKIPFKMVDVGGQRSQRQKWFQCFDGITSILFMVDSSDYNRLVESMNDFETIVNNKLFFNVSIILFLNKMDLLVEKVKTVSIKKHFPDFRGDPHRLEDVQRYLVQCFDRKRRNRSKPLFHHFTTAIDTENARFIFHAVKDTILQENLKDIMLQ
modifications: Mini-G128
Question: Which “Stability in detergent measured by native DSF, 0.1% DDM” value (from here on “Stability in detergent … 0.1% DDM”) [5] does the source give for B2 here?
Answer: 41.2 ± 0.2 °C

Question: And the “Stability in detergent measured by native DSF, 0.1% LMNG” value (from here on “Stability in detergent … 0.1% LMNG”) [5]?
Answer: 46.0 ± 0.1 °C

Question: What about the “Stability in detergent measured by native DSF, No detergent” value (shortened to “Stability in detergent … No detergent”) [5] of the same molecule?
Answer: 50.3 ± 0.1 °C

Question: What about the “Stability measured by DSF” value [6] of the same molecule?
Answer: 73 °C

Question: And the “Stability measured by DSF” value ([6]; listed as Gl2 8)?
Answer: 72.6 ± 0.3 °C

B3: Mini Gs77 (protein)
chain: MGHHHHHHANKKIEKQLQKDKQVYRATHRLLLLGAGESGKSTIVKQMRILHVNGGGDQDALRSRVLTSGIFETKFQVDKVNFHMFDVGGQRDERRKWIQCFNDVTAIIFVVASSSYNMVIREDNQTNRLQEALNLFKSIWNNRWLRTISVILFLNKQDLLAEKVLAGKSKIEDYFPEFARYTTPEDATPEPGEDPRVTRAKYFIRDEFLRISTASGDGRHYCYPHFTCAVDTENIRRVFNDCRDIIQRMHLRQYELL
modifications: MINI GS77
Question: Which “shift of isoprenaline Ki of β1AR-84 in response to binding partner, 4° C.” value ([2]; relative to uncoupled […]) does the source give for B3 here?
Answer: 21 fold

B4: Mini Gs393 (protein)
chain: MGHHHHHHENLYFQGIEKQLQKDKQVYRATHRLLLLGADNSGKSTIVKQMRILHGGSGGSGGTSGIFETKFQVDKVNFHMFDVGGQRDERRKWIQCFNDVTAIIFVVDSSDYNRLQEALNDFKSIWNNRWLRTISVILFLNKQDLLAEKVLAGKSKIEDYFPEFARYTTPEDATPEPGEDPRVTRAKYFIRDEFLRISTASGDGRHYCYPHFTCAVDTENARRIFNDCRDIIQRMHLRQYELL
modifications: N-terminal His tag, TEV site; MINI GS393
Question: With B4 as the molecule, how does the “Stability in detergent … 0.1% DDM” value [5] read?
Answer: 39.1 ± 0.0 °C

Question: And the “Stability in detergent … 0.1% LMNG” value [5]?
Answer: 44.9 ± 0.2 °C

Question: And the “Stability in detergent … No detergent” value [5]?
Answer: 47.7 ± 0.2 °C

Question: And the “GTP-mediated dissociation of β1AR-84 complexes” value ([2]; 0.25 mM GTPγS)?
Answer: completely resistant

Question: What about the “Stability measured by DSF” value [6] of the same molecule?
Answer: 65.3 ± 0.0 °C

B5: Mini-Gs/q57: mini-Gs with five C-terminal residues changed to Gαq (Q390E, E392N, L394V) (protein)
chain: MGHHHHHHENLYFQGIEKQLQKDKQVYRATHRLLLLGADNSGKSTIVKQMRILHGGSGGSGGTSGIFETKFQVDKVNFHMFDVGGQRDERRKWIQCFNDVTAIIFVVDSSDYNRLQEALNDFKSIWNNRWLRTISVILFLNKQDLLAEKVLAGKSKIEDYFPEFARYTTPEDATPEPGEDPRVTRAKYFIRDEFLRISTASGDGRHYCYPHFTCAVDTENARRIFNDCRDIIQRMHLREYNLV
modifications: Mini-Gs/q57
Question: For B5, which “coupling of mini-Gs/q chimera to A2AR” value [3] is on record?
Answer: still observed

B6: Mini-Gs/i143: mini-Gs with 9 α5 helix mutations changing coupling specificity to Gi1; SEQ ID NO:111 (protein)
chain: MGHHHHHHENLYFQGIEKQLQKDKQVYRATHRLLLLGADNSGKSTIVKQMRILHGGSGGSGGTSGIFETKFQVDKVNFHMFDVGGQRDERRKWIQCFNDVTAIIFVVDSSDYNRLQEALNDFKSIWNNRWLRTISVILFLNKQDLLAEKVLAGKSKIEDYFPEFARYTTPEDATPEPGEDPRVTRAKYFIRDEFLRISTASGDGRHYCYPHFTCAVDTENARRIFNDVTDIIIKMNLRDCGLF
modifications: Mini-Gs/i143
Question: Which results are given for B6?
Answer: Stability in detergent measured by native DSF, 0.1% DDM [5]: 35.9 ± 0.1 °C; Stability in detergent measured by native DSF, 0.1% LMNG [5]: 41.1 ± 0.1 °C; Stability in detergent measured by native DSF, No detergent [5]: 44.8 ± 0.0 °C; Stability measured by DSF [6]: 69.0 ± 0.1 °C

B7: Mini-Gs/q70: mini-Gs with R380K Q384L R385Q H387N Q390E E392N L394V (protein)
chain: GIEKQLQKDKQVYRATHRLLLLGADNSGKSTIVKQMRILHGGSGGSGGTSGIFETKFQVDKVNFHMFDVGGQRDERRKWIQCFNDVTAIIFVVDSSDYNRLQEALNDFKSIWNNRWLRTISVILFLNKQDLLAEKVLAGKSKIEDYFPEFARYTTPEDATPEPGEDPRVTRAKYFIRDEFLRISTASGDGRHYCYPHFTCAVDTENARRIFNDCKDIILQMNLREYNLV
Question: With B7 as the molecule, how does the “Stability in detergent … 0.1% DDM” value [5] read?
Answer: 36.2 ± 0.1 °C

Question: And the “Stability in detergent … 0.1% LMNG” value [5]?
Answer: 44.2 ± 0.2 °C

Question: And the “Stability in detergent … No detergent” value [5]?
Answer: 47.2 ± 0.3 °C

Question: What about the “coupling of mini-Gs/q chimera to A2AR” value [3] of the same molecule?
Answer: no binding

Question: And the “Stability measured by DSF” value [6]?
Answer: 67.2 ± 0.4 °C
